Here are results for one molecule from patent publication US20160304573A1, “FIBROMODULIN PEPTIDE” (The Regents of the University of California, priority 2010, published 2016).

Holding throughout (format): cell-based
The subject of assay [1] is Rat-2 cells. The experiment in a line: H&E morphology of Rat-2 cells. How it is done: Exemplary tests were performed to better delineate cell morphology.
The test system of assay [2] is Rat-2 fibroblasts. The experiment in a line: Z-axes series sequential images, relative height of nodules. The conditions noted are these: FMOD and TGF-β1 treatment. The text has this: But for the nodules formed with FMOD and TGF-β1 treatment (yellow arrows), the cells were stacked on top of one another to a height of about 48 μm.
For assay [3], the system named is Rat-2 (rat fibroblast cell line) cells. The assay can be described thus: Rat-2 cell proliferation, Click-iT Microplate Assay. The conditions noted are these: FMOD combined with 100 pM TGF-β1, 48 hours; FIG. 16. How it is done:
2000 cell/well passage 18 Rat-2 (rat fibroblast cell line) cells were seeded in 96-well plates with 200 μl DMEM-10% FBS for 6 hours, followed by overnight serum starving with 200 μl DMEM-0.5% FBS. 200 μl treatment medium, DMEM-0.5% FBS harboring different concentration of FMOD (SEQ ID NO:1), FMOD-F07-C40 peptide with/without 100 pM TGF-βI (SEQ ID NO:64), was added to the well and refreshed on the second day. After 48 hours treatment, proliferation of Rat-2 cells was evaluated by Click-iT® Microplate Assay (Invitrogen).

Where [4] appears, read: 100 pM TGF-β1 and 200 nM FMOD combined treatment.

B1: FMOD: recombinant human fibromodulin whole protein (SEQ ID NO:1) produced in CHO-K1 (protein, listed as Homo sapiens)
chain: MQWTSLLLLAGLFSLSQAQYEDDPHWWFHYLRSQQSTYYDPYDPYPYETYEPYPYGVDEGPAYTYGSPSPPDPRDCPQECDCPPNFPTAMYCDNRNLKYLPFVPSRMKYVYFQNNQITSIQEGVFDNATGLLWIALHGNQITSDKVGRKVFSKLRHLERLYLDHNNLTRMPGPLPRSLRELHLDHNQISRVPNNALEGLENLTALYLQHNEIQEVGSSMRGLRSLILLDLSYNHLRKVPDGLPSALEQLYMEHNNVYTVPDSYFRGAPKLLYVRLSHNSLTNNGLASNTFNSSSLLELDLSYNQLQKIPPVNTNLENLYLQGNRINEFSISSFCTVVDVVNFSKLQVLRLDGNEIKRSAMPADAPLCLRLASLIEI
Regarding B1, in assay [1] (setting [4]), the “cell density (H&E)” value is “significantly increased cell density” and the nodule size entry was “increased nodule size”. For the same molecule, in assay [1] (100 pM TGF-β1 and 200 nM FMOD combined treatment, 8-well chamber slides), the nodule number result is reported as “about four”. Moreover, in assay [1] (200 nM FMOD alone, FIG. 22), the “cell morphology (H&E)” value was “flat, spread-out Rat-2 cell morphology”. The “cell aggregation/density (H&E)” value in assay [1] (mono-treatment (200 nM FMOD or 100 pM TGF-β1), relative to controls) was “lower cell aggregation/density relative to controls”. The “height of stacked cells in nodules” value in assay [2] is “about 48 μm”. Besides, the fibroblast proliferation result in assay [3] is “significantly increased fibroblast proliferation”.
